Here are results for one molecule from article PMC9067507, “F/YGG-motif is an intrinsically disordered nucleic-acid binding motif”.

What is called Kd is the constant that tells how readily two partners part at equilibrium.

Experiment in all cases: MST; 10 mM MgCl2; MST: 20 mM HEPES pH 7.5, 10 mM MgCl2, 0.05% Tween-20; 420 nM labelled U30 with protein titrated, or labelled peptide with RNA titrated; temperature not stated
One data set has as its target hnRNPA2 LCD (human, UniProt P22626 200-353). As to conditions: protein: recombinant; tags: 6xHis removed by TEV.
The next data set deals with T1, hnRNPA2 LCD deltaNAID2 (human, UniProt P22626 200-306, del307-353).
T1 sequence: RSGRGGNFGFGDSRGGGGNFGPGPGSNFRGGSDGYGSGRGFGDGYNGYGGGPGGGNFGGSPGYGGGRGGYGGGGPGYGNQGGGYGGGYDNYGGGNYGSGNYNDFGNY
As to conditions: protein: recombinant; (stated for LCD only).

The target in the next data set is T2, hnRNPA2 LCD deltaNAID1 (human, UniProt P22626 200-353, del239-306).
T2 sequence: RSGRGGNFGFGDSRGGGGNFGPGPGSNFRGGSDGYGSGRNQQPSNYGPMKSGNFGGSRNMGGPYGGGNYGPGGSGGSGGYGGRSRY
As to conditions: protein: recombinant; (stated for LCD only).

Chain of hnRNPA2 LCD (P22626 200-353): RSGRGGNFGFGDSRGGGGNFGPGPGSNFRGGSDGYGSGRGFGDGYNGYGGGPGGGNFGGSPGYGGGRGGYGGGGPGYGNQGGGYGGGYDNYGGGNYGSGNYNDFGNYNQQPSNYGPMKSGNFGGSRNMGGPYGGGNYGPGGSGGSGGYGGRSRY

As to UUUUUUUUUUUUUUUUUUUUUUUUUUUUUU (ssRNA) [U30 (labelled)], the Kd was determined as 0.72 ± 0.002 µM with hnRNPA2 LCD, 13 ± 3 µM with hnRNPA2 LCD deltaNAID2 and 41 ± 1.4 µM with hnRNPA2 LCD deltaNAID1.
